For test [1], the target named is human β-NGF (human) (UniProt P01138). Put plainly: ELISA, plate coated with 0.5 µg/mL human β-NGF; antibody 1 µg/mL diluted 1:81; duplicate well 2.
For test [2] the target is unchanged. Kind of test: ELISA, plate coated with 0.5 µg/mL human β-NGF; antibody 1 µg/mL diluted 1:729; duplicate well 2. Background: ELISA stands for enzyme-linked immunosorbent assay.
For test [3] the target is unchanged. Put plainly: ELISA, plate coated with 0.5 µg/mL human β-NGF; antibody 1 µg/mL diluted 1:243; duplicate well 1.
For test [4] the target is unchanged. Put plainly: ELISA, plate coated with 0.5 µg/mL human β-NGF; antibody 1 µg/mL diluted 1:81; duplicate well 1.
Test [5] has the same target. Put plainly: ELISA, plate coated with 0.5 µg/mL human β-NGF; antibody 1 µg/mL diluted 1:3; duplicate well 1.
For test [6] the target is unchanged. Kind of test: ELISA, plate coated with 0.5 µg/mL human β-NGF; antibody 1 µg/mL diluted 1:9; duplicate well 2.
Test [7] addresses NGF (as used in the TF-1 cell proliferation assays). Put plainly: cell-based or functional assay.
Test [8] concerns the target human β-NGF (human) (UniProt P01138). Put plainly: ELISA, plate coated with 0.5 µg/mL human β-NGF; antibody 1 µg/mL diluted 1:27; duplicate well 1.
Test [9] has the same target. Put plainly: ELISA, plate coated with 0.5 µg/mL human β-NGF; antibody at 1 µg/mL; duplicate well 1.
Test [10] has the same target. Kind of test: ELISA, plate coated with 0.5 µg/mL human β-NGF; antibody 1 µg/mL diluted 1:243; duplicate well 2.
The target is the same in test [11]. Put plainly: ELISA, plate coated with 0.5 µg/mL human β-NGF; antibody 1 µg/mL diluted 1:3; duplicate well 2.
For test [12] the target is unchanged. Kind of test: ELISA, plate coated with human β-NGF, anti-human IgG-HRP detection, 4-parameter fit.
The target is the same in test [13]. Put plainly: ELISA, plate coated with 0.5 µg/mL human β-NGF; antibody 1 µg/mL diluted 1:729; duplicate well 1.
For test [14] the target is unchanged. Put plainly: ELISA, plate coated with 0.5 µg/mL human β-NGF; antibody 1 µg/mL diluted 1:27; duplicate well 2.
Test [15] shares this target. Kind of test: ELISA, plate coated with 0.5 µg/mL human β-NGF; antibody 1 µg/mL diluted 1:9; duplicate well 1.
Test [16] shares this target. Put plainly: ELISA, plate coated with 0.5 µg/mL human β-NGF; antibody at 1 µg/mL; duplicate well 2.

pEC50: −log10 of the molar value.

human β-NGF (human), sequence (P01138 122-241 limits assumed): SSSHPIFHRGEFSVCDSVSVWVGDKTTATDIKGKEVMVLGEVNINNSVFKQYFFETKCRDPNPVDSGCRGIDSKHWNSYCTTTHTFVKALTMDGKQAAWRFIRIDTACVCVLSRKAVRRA

As a reminder, the pEC50 is −log10 of the EC50, conventionally taken in molar units. Read a high pEC50 as a low EC50. On to Pfizer antibody Tanezumab, for which the OD (450 nm) was 1.27 OD (450 nm) in test [1]; 0.245 OD (450 nm) in test [2]; 0.56 OD (450 nm) in test [3]; 1.18 OD (450 nm) in test [4]; 2.66 OD (450 nm) in [5]; 2.27 OD (450 nm) in [6]. The OD (450 nm) in test [8] is 2.17 OD (450 nm); in test [9] it was 2.77 OD (450 nm); in test [10], 0.609 OD (450 nm); in [11], 2.55 OD (450 nm); in test [13], 0.227 OD (450 nm); in test [14], 1.97 OD (450 nm). For the same substance, the OD (450 nm) was 2.48 OD (450 nm) in test [15] and 2.71 OD (450 nm) in test [16]. This substance returned a neutralizing EC50 to NGF (inhibition of NGF-induced TF-1 cell proliferation, CCK-8) in test [7] of 0.21 nM. In test [12], this substance showed a pEC50 of 9.99.
